Assay results as given in patent US20260167703A1.
Changes are numbered by the printed parent chain.

B1: DENV2-8D8 (antibody, V domains shown)
VH: QSLEESGGRLVKPDETLTLTCTVSGIDLSSTIITWVRQAPGKGLEYIGIIGSSGSIISANWAKGRFTISRTSTTVDLKMTSLTTEDTATYFCARIAWSTGRNDIWGPGTLVTVSS
VL: AAVLTQTPPSVSAAVGGTVTISCQSSQSVYNNNALSWYQQKPGQPPKLLIYLASNLASGVPSRFSGSGSGTQFTLTISGVQCDDAATYHCLGVDDDDVDNTFGGGTEVVVK
B2: DENV2-3H11 (antibody, V domains shown)
VH: QSVEESGGRLVTPGTPLTLTCTVSGFSLINYDMSWIRQAPGKGLEWIGMVSGGGHTNYASWANGRFTISKTSSTTMDLKITSPTTEDTASYFCGRWDIWGPGTLVTVSL
VL: AVVVTQTASPVSAAVGGTVTISCQSSQSVYDDNWLAWYQQKPGQPPKQLIYRASRLASGVPSRFSGTGSGTQFTLTISGVQCDDAATYYCLGGYVDDGDTTFGGGTEVVVK
B3: DENV2-5F4 (antibody, V domains shown)
VH: QSVEESGGRLVKPDETLTLTCTVSGIDLSNTVISWVRQAPGKGLEYIGMITPSGSAYSATWAKGRVTISRTSTTVDLKIASPTTEDTATYFCARIAWSTGRNDIWGPGTLVTVSS
VL: B1 VL with S22K, L52Q, N55K, A57S, P61S, Q72H, H89Y, V93I, D94Y, K111G
B4: DENV4-5B11 (antibody, V domains shown)
VH: QSVEESGGRLVTPGTPLTLTCTVSGFSLSDSAMSWVRQAPGKGLEWIGYIYAGSGTTYYASWAKGRFTISKTSTTVDLKITSPTTEDTATYFCARATAYVGYGYGDDTFDPWGPGTLVTVSS
VL: AYDMTQTPASVEVAVGGTVTIKCQASQSISSYLSWYQQKPGQRPKLLIYRASTLASGVSSRFKGSGSGTEFTLTISGVQCDDAATYYCQQGYSNSDVDNVFGGGTEVVVK
B5: DENV4-7D5 (antibody, V domains shown)
VH: QSVEESGGRLVTPGTPLTLTCTVSGIDLSSWEMGWVRQAPGKGLEWIGIIFPSGTIYYANWAKGRFAISKASTTVDLKITSPTTEDTATYFCGRHGGSLYLNIWGPGTLVTVSL
VL: AQVLTQTPSPVSAAVGGTVTINCQASQSVYVNRNLAWYQQKPGQPPKVLIYEASKLASGVPSRFKGSGSGTQFTLTISGVQCDDAATYYCQGEFGCSSADCIAFGGGTEVVVK
B6: DENV4-7F2 (antibody, V domains shown)
VH: QSVEESGGRLVTPGTPLTLTCTVSGIDLSYYAMGWVRQAPGEGLECIGFIDTGDSAYYASWAKGRFTISKTSSTTVDLKITSPTPEDTATYFCGRSLSSYYDWDAFDPWGPGTLVTVSS
VL: AYDMTQTPASVEVAVGGTVTINCQASQTIGNLLAWYQQKPGQRPKLLIYRASTLASGVPSRFKGSGSGTQFTLTISGVECADAATYYCQQGASANDIDNSFGGGTAVVVK
B7: DENV4-7G4 (antibody, V domains shown)
VH: B4 VH with D30S, S31C, S34T, A52V, G53D, G55D, K71T, K79R, A96T, Y102G
VL: DVVMTQTPASVEAAVGGTVTINCQASQNINSYLSWYQQKPGQRPKLLIYRAFTLASGVSSRFKGSGSGTQFTLTISGVECADAATYYCQQGYSFSGVDNVFGGGTEVVVK
B8: DENV4-8C7 (antibody, V domains shown)
VH: B5 VH with W31Y, A67T, A71T
VL: B5 VL
B9: DENV4-9G8 (antibody, V domains shown)
VH: QSLEESGGGLVKPGASLTLTCTASGFSFSYRYWMSWVRQAPGKRPEWIACIDTGNGDTYYASRAKGRFTIMKTSSTTVTLQMTSLTVADTATYFCARSDVTLTGYGYGNLWGPGTLVTVSS
VL: DSVMTQTPASVSEPVGGTVTINCQASHNIYNSLAWYQQKPGQPPKLLIYRASTLESGVPSRVKGSGYGTEYTLTISDLECADAATYYCQQYYGGDDDGFGFGGGTEVVVK
B10: DENV4-10A11 (antibody, V domains shown)
VH: QSVEESGGRLVTPGTPLTLTCTVSGINLSFYAMGWVRQAPGKGLECVGFIDTDNSAYYASWAKGRFTISKTSTTVDLKITSPTTEDTATYFCARSLSSFYDWDAFDPWGPGTLVTVSS
VL: B6 VL with N22K, Q24L, T28S, G30S, A94N, N95S, S100A, A106E

What follows are binders tested against DENV-2 VLP (Dengue virus serotype 2, strain Thailand/16681/84) (assay: not given).
B1 showed a Response (nm) of 0.756 nm and a koff of less than 2e-05 s⁻¹.
Binder B2 has a Response (nm) of 2.02 nm and a koff of less than 2e-05 s⁻¹.
B3 gave a Response (nm) of 1.5 nm and a koff of less than 2e-05 s⁻¹.

These binders were tested against DENV-2 VLP (Dengue virus serotype 2, strain Thailand/16681/84) (assay: Luminex, VLP-coupled beads).
B1 showed an EC50 of 0.011 µg/mL.
For B2, the EC50 was 0.0354 µg/mL.
B3 gave an EC50 of 0.0095 µg/mL.

The binders below were run against DENV-4 E protein Domain III (Dengue virus serotype 4, strain Indonesia/1036/1976) (assay: BLI, mAb on AR2G biosensor, 20 ug/mL Domain III, 1200 sec).
For B4, the Response (nm) was 0.02 nm.
B5 showed a Response (nm) of -0.007 nm.
B6 gave a Response (nm) of -0.005 nm.
Binder B7 has a Response (nm) of -0.001 nm.
B8 was tested, and the Response (nm) was -0.014 nm.
In the case of B9, the Response (nm) is reported as 0.264 nm.
B10 was tested, and the Response (nm) was 0.012 nm.

The binders below were run against DENV-2 E protein Domain III (Dengue virus serotype 2, strain Thailand/16681/1984) in the same assay as above.
B1 gave a Response (nm) of 0.0246 nm.
In the case of B2, the Response (nm) is reported as -0.00452 nm.
For B3, the Response (nm) was 0.0206 nm.
